Among the data in patent US6072035 are Ka, koff and kon values, retold here.

Residue numbers refer to the chain shown, from its start.

What is called koff is the first-order rate constant of dissociation. Read a low koff as slow dissociation. One may read the kon as the rate constant with which the complex forms. Lower therefore signals slow association.

B1: murine monoclonal antibody TES-C21 (antibody, V domains shown)
VH: QVQLQQSGAELMKPGASVKISCKTTGYTFSMYWLEWVKQRPGHGLEWVGEISPGTFTTNYNEKFKAKATFTADTSSNTAYLQLSGLTSEDSAVYFCARFSHFSGSNYDYFDYWGQGTSLTVSS
VL: DILLTQSPAILSVSPGERVSFSCRASQSIGTNIHWYQQRTDGSPRLLIKYASESISGIPSRFSGSGSGTEFTLNINSVESEDIADYYCQQSDSWPTTFGGGTKLEIK
B2: reshaped human C21 antibody C21-Hay3/L1 (antibody, V domains shown)
VH: QVQLVQSGAEVKKPGASVKVSCKASGYTFSMYWLEWVRQAPGQRLEWMGEISPGTFTTNYNEKFKARATFTADTSASTAYMELSSLRSEDTAVYYCARFSHFSGSNYDYFDYWGQGTLVTVSS
VL: DILLTQSPGTLSLSPGERATLSCRASQSIGTNIHWYQQKPGQAPRLLIKYASESISGIPSRFSGSGSGTDFTLTISRLEPEDFAMYY
B3: reshaped human C21 antibody C21-H1/L3 (antibody, V domains shown)
VH: QVQLVQSGAEVKKPGASVKVSCKASGYTFSMYWLEWVKQRPGHGLEWVGEISPGTFTTNYNEKFKAKATFTADTSTNTAYMELSSLTSEDTAVYYCARFSHFSG
VL: EIVLTQSPGTLSLSPGERATLSCRASQSIGTNIHWYQQKPGQAPRLLIKYASESISGIPSRFSGSGSGTDFTLTISRLEPEDFAMYYCQQSDSWPTTFGQGTKVEIK
B4: reshaped human C21 antibody C21-H3/L3 (antibody, V domains shown)
VH: B3 VH with K38R, R40A, K67R, T87R
VL: B3 VL
B5: reshaped human C21 antibody C21-H1/L1 (antibody, V domains shown)
VH: B3 VH
VL: B2 VL
B6: reshaped human C21 antibody C21-H3/L1 (antibody, V domains shown)
VH: B3 VH with K38R, R40A, K67R, T87R
VL: B2 VL
B7: reshaped human C21 antibody C21-Hay3/L2 (antibody, V domains shown)
VH: B2 VH
VL: B3 VL with E1D, V3L, S60D
B8: reshaped human C21 antibody C21-H1/L2 (antibody, V domains shown)
VH: B3 VH
VL: B3 VL with E1D, V3L, S60D
B9: reshaped human C21 antibody C21-H3/L2 (antibody, V domains shown)
VH: B3 VH with K38R, R40A, K67R, T87R
VL: B3 VL with E1D, V3L, S60D
B10: reshaped human C21 antibody C21-Hay3/L3 (antibody, V domains shown)
VH: B2 VH
VL: B3 VL

The target in one experiment is human IgE; monoclonal antibody SE44 (human) (UniProt P01854). The experiment is described as follows: BIAcore, antibody captured by anti-mouse IgG1, IgE SE44 as analyte. (In general: SPR reads the build-up and loss of mass on a sensor chip optically.)
On to B1, for which the Ka worked out at 9.2e+09 M⁻¹, the koff came to 2.6e-05 s⁻¹ and the kon was 240000 M⁻¹ s⁻¹.

The next experiment has the same target. Description: BIAcore, antibody captured by anti-human IgG, IgE SE44 as analyte.
Molecule B2 yielded a Ka of 6.1e+09 M⁻¹, an off-rate constant (koff) of 4.1e-05 s⁻¹ and an on-rate (kon) of 250000 M⁻¹ s⁻¹.
Take B3: the Ka turned out to be 4.7e+09 M⁻¹, the off-rate constant (koff) came out at 6.2e-05 s⁻¹ and the kon is 290000 M⁻¹ s⁻¹.
For B4, in that order: 7.4e+09 M⁻¹, 3.5e-05 s⁻¹ and 260000 M⁻¹ s⁻¹.
In turn, B5 showed a Ka of 8.7e+09 M⁻¹, a koff of 3e-05 s⁻¹ and an on-rate constant (kon) of 260000 M⁻¹ s⁻¹.
The corresponding values for B6 are 1.32e+10 M⁻¹, 1.9e-05 s⁻¹ and 250000 M⁻¹ s⁻¹.
B7 registered a Ka of 8.1e+09 M⁻¹, a dissociation rate constant (koff) of 3.1e-05 s⁻¹ and a kon of 250000 M⁻¹ s⁻¹.
The molecule B8 displayed a Ka of 4.9e+09 M⁻¹, a koff of 5.7e-05 s⁻¹ and a kon of 280000 M⁻¹ s⁻¹.
The corresponding values for B9 are 5.7e+09 M⁻¹, 4.4e-05 s⁻¹ and 250000 M⁻¹ s⁻¹.
For B10, in that order: 1.6e+09 M⁻¹, 0.000159 s⁻¹ and 260000 M⁻¹ s⁻¹.
